Source: paper PMC10350030 (bioRxiv, 2023)

Target: biotin-Aβ42 (UniProt P05067 672-713, biotin (site not stated))
Test: single-molecule TIRF microscopy

biotin-Aβ42, sequence (P05067 672-713): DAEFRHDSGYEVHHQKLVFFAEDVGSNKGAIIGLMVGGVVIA

half-lifetime of transient binding: ~14.6 s
B1: Cy3-labeled ceruloplasmin (enzyme, human, UniProt P00450 20-1065, looked up)
chain: KEKHYYIGIIETTWDYASDHGEKKLISVDTEHSNIYLQNGPDRIGRLYKKALYLQYTDETFRTTIEKPVWLGFLGPIIKAETGDKVYVHLKNLASRPYTFHSHGITYYKEHEGAIYPDNTTDFQRADDKVYPGEQYTYMLLATEEQSPGEGDGNCVTRIYHSHIDAPKDIASGLIGPLIICKKDSLDKEKEKHIDREFVVMFSVVDENFSWYLEDNIKTYCSEPEKVDKDNEDFQESNRMYSVNGYTFGSLPGLSMCAEDRVKWYLFGMGNEVDVHAAFFHGQALTNKNYRIDTINLFPATLFDAYMVAQNPGEWMLSCQNLNHLKAGLQAFFQVQECNKSSSKDNIRGKHVRHYYIAAEEIIWNYAPSGIDIFTKENLTAPGSDSAVFFEQGTTRIGGSYKKLVYREYTDASFTNRKERGPEEEHLGILGPVIWAEVGDTIRVTFHNKGAYPLSIEPIGVRFNKNNEGTYYSPNYNPQSRSVPPSASHVAPTETFTYEWTVPKEVGPTNADPVCLAKMYYSAVEPTKDIFTGLIGPMKICKKGSLHANGRQKDVDKEFYLFPTVFDENESLLLEDNIRMFTTAPDQVDKEDEDFQESNKMHSMNGFMYGNQPGLTMCKGDSVVWYLFSAGNEADVHGIYFSGNTYLWRGERRDTANLFPQTSLTLHMWPDTEGTFNVECLTTDHYTGGMKQKYTVNQCRRQSEDSTFYLGERTYYIAAVEVEWDYSPQREWEKELHHLQEQNVSNAFLDKGEFYIGSKYKKVVYRQYTDSTFRVPVERKAEEEHLGILGPQLHADVGDKVKIIFKNMATRPYSIHAHGVQTESSTVTPTLPGETLTYVWKIPERSGAGTEDSACIPWAYYSTVDQVKDLYSGLIGPLIVCRRPYLKVFNPRRKLEFALLFLVFDENESWYLDDNIKTYSDHPEKVNKDDEEFIESNKMHAINGRMFGNLQGLTMHVGDEVNWYLMGMGNEIDLHTVHFHGHSFQYKHRGVYSSDVFDIFPGTYQTLEMFPRTPGIWLLHCHVTDHIHAGMETTYTVLQNEDTKSG
modifications: Cy3 label (site not stated)
